Assay [1] concerns the target T1, Human OPG-Fc (human).
T1 construct: also called hOPG-Fc; human OPG (in-house)
Kind of assay: SPR (ProteOn XPR36), antibody captured on anti-mouse IgG, OPG-Fc as analyte, 25 C, 1:1 model. The method, then:
(§1) Affinity of secreted antibodies was assessed by testing hybridoma supernatants by Label-free surface plasmon resonance (SPR). This analysis was carried out on the ProteOn XPR36 (BioRad) array SPR machine. An anti-mouse IgG capture surface was created on a GLC biosensor chip using amine coupling of an anti-mouse IgG from GE Healthcare. Test antibodies were captured on this surface and human, rat and cyno OPG (in-house) was used as the analyte at 256 nM, 64 nM, 16 nM, 4 nM and 1 nM for Ky3 (15F11), Ky4 (16G05), 5A06, 25F06, 15B08 and 10B07 and at a single concentration of 100 nM for Ky1 (6D07) and Ky2 (8C10). The assay was carried out at 25° C. using HBS-EP (Teknova H8022). Buffer alone was used to reference the binding sensorgrams. The data was analysed using the 1:1 model inherent to the ProteOn XPR36 analysis software.

Assay [2] concerns the target T2, Rat OPG-Fc (rat).
T2 construct: The entry begins with a signal peptide ('usually cleaved upon expression'); also called rat OPG (in-house)
The description is as above. How it is done:
as §1

Assay [3] has as its target T3, Cyno OPG-Fc (cynomolgus).
T3 construct: The entry begins with a signal peptide ('usually cleaved upon expression'); also called cyno OPG (in-house)
The description is as above. How it is done: as §1

The target of assay [4] is T1, Human OPG-Fc. The assay is described as follows: SPR (ProteOn XPR36), antibody captured on anti-mouse IgG, OPG-Fc as analyte, 25 C, 1:1 model; apparent affinity.
In assay [5] the target is T2, Rat OPG-Fc. Described as above.
The target of assay [6] is T3, Cyno OPG-Fc. Described as above.
The target of assay [7] is T1, Human OPG-Fc. The assay is described as follows: HTRF competition, purified antibody titrated from 120 nM against 4 nM OPG-Fc and 16 nM TRAIL-Flag; remaining specific binding of TRAIL.
The target in assay [8] is T1, Human OPG-Fc. Kind of assay: HTRF competition, purified antibody titrated from 120 nM against 20 nM OPG and 55.6 nM RANKL-647; remaining specific binding of RANKL. On the technique in general: In TR-FRET formats the signal depends on donor and acceptor labels being close together.
The target of assay [9] is T1, Human OPG-Fc. The assay is described as follows: cell-based or functional assay.
In assay [10] the target is T3, Cyno OPG-Fc. Kind of assay: SPR (ProteOn XPR36); CNROR = cannot resolve off rate, no KD given.
Assay [11] deals with T1, Human OPG-Fc. Kind of assay: HTRF competition, purified antibody titrated from 120 nM against 4 nM OPG-Fc and 16 nM TRAIL-Flag; inhibition of TRAIL binding.
The target of assay [12] is T3, Cyno OPG-Fc. Kind of assay: SPR (ProteOn XPR36), antibody captured on anti-mouse IgG, OPG-Fc as analyte; CNROR = cannot resolve off rate, no KD given.

T2 sequence (chain, as listed by the source limits assumed): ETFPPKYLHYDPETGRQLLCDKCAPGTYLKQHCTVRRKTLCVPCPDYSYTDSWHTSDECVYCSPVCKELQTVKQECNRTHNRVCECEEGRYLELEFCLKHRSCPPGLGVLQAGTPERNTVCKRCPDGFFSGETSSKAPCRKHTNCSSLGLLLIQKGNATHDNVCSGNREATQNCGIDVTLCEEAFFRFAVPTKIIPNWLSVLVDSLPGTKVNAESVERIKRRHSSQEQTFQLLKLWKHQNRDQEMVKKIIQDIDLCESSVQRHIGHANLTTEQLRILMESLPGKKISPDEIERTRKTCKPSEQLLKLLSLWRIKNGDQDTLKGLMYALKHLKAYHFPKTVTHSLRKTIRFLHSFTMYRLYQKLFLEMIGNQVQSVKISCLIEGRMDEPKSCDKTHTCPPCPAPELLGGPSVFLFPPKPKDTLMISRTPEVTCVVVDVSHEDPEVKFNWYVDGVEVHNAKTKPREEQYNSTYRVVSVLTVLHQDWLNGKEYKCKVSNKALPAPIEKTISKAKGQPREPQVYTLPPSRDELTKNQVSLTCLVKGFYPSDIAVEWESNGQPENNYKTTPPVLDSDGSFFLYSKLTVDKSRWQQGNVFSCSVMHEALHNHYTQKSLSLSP
T1 sequence (chain, as listed by the source limits assumed): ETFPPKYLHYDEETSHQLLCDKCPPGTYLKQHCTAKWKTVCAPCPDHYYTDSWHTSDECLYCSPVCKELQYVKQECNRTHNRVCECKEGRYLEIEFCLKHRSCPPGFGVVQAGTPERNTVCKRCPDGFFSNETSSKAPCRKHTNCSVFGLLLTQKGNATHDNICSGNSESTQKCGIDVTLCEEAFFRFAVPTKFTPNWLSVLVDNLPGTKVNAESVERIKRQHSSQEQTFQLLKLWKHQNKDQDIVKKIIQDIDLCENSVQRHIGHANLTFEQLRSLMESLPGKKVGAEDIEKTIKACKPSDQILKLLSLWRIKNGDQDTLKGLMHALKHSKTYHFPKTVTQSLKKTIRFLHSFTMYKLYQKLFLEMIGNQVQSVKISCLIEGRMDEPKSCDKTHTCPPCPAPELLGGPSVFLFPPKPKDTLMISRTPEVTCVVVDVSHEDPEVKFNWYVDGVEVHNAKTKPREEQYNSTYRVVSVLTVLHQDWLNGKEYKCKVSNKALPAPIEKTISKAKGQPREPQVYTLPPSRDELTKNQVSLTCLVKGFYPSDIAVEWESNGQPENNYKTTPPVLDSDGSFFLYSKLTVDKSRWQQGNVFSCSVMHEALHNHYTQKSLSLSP
T3 sequence (chain, as listed by the source limits assumed): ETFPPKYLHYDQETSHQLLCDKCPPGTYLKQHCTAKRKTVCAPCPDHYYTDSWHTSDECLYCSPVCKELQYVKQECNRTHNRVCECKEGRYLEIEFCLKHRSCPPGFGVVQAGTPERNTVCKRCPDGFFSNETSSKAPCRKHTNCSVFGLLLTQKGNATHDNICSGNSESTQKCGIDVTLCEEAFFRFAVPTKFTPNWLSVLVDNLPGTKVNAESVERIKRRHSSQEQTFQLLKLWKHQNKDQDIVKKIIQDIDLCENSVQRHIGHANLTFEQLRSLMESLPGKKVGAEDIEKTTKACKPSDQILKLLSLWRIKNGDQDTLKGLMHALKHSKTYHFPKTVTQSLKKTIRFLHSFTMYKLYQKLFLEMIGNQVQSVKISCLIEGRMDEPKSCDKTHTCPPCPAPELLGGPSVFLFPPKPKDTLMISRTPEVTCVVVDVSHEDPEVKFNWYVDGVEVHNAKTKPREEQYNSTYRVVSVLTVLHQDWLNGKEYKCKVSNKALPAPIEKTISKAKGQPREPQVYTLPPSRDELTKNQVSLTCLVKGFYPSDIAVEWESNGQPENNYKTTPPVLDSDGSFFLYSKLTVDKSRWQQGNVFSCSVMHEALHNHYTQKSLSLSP

B1: Ky1 (6D07) (antibody, V domains shown)
VH: QVQLVQSGAEVKKPGASVKVSCKASGYTFTSYGISWVRQAPGQGLEWMGWISAYNGNTNYKQKLQGRVTMTTDTSTSTAYMELRSLRSDDTAVYYCARGGSGRYYPWGQGTLVTVSS
VL: DIQMTQSPSSLSASVGDRVTITCRASQGIRNDLGWYQQIPGKAPKRLIYDASSLQSGVPSRFSGSGSGTEFTLTISSLQPEDFATYYCLQHNSYPFTFGPGTKVDIK
notes: Campaign KM059; In SPR and HTRF it was tested as hybridoma material (human variable regions, mouse constant regions; captured on anti-mouse IgG)
B1: the Kd in assay [1] is 0.17 nM; in assay [2] it was 1.35 nM; in assay [3], 14.8 nM; in assay [4], 0.17 nM; in [5] it was 1.35 nM; in [6], 14.8 nM. Further, the “% Max Specific binding” value in assay [7] was 4.8%.

B2: Ky4 (16G05) (antibody, V domains shown)
VH: EVQLVESGGGLVQPGRSLRLSCAVSGFTFDDYAMHWVRQPPGKGLEWVSGISWNSGSIDYADSVKGRFTISRDNAKNSLYLQMNSLRAEDTALYYCAKDYYYDSSAYVLFDYWGQGTLVTVSS
VL: DIQMTQSPSSLSASVGDRVIITCRASQSISSYLNWYQQKPGKAPELLIYGASSLQSGVPSRFSGSGSGTDFTLTISSLQPEDFATYYCQQSFSTPLTFGGGTKVEIK
notes: Campaign KM058; In SPR and HTRF it was tested as hybridoma material (human variable regions, mouse constant regions; captured on anti-mouse IgG)
Consider B2, for which the Kd was found to be 0.18 nM in assay [1]; 1.3 nM in assay [2]; 0.166 nM in assay [3]; 0.18 nM in [4]; 1.3 nM in assay [5]; 0.17 nM in [6]. In addition, the “% Max Specific binding” value in [8] was 65.1%; in assay [7], 50.7%.

B3: Ky3 (15F11) (antibody, V domains shown)
VH: EVQLVESGGGLVQPGGSLRLSCAASGFTFGRYDMNWVRQTTGKGLEWVSAIGTAGDTYYPGSVKGRFTISRENAKNSLYLQMNSLRPGDTAVYYCARARPYYYDSGSYYHAPFDYWGQGTLVTVSS
VL: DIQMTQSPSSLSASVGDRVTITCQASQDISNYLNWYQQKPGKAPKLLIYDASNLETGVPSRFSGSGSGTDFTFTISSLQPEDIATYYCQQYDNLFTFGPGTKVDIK
notes: as for B2
With B3, the “EC50 (read off the curve)” value in assay [9] is ~10 nM. The binding result in assay [10] is “binds”. In addition, the Kd in assay [2] and in assay [5] was 0.12 nM each time. Also, in assay [11], the IC50 turned out to be 1.4 nM. The “% Max Specific binding” value in [8] was 27.1%.

B4: Ky5 (15H06) (antibody, V domains shown)
VH: not shown
VL: AIQMTQSPSSVSASVGDRVTITCRASQGISSWLAWYQQKPGKAPKLLIYAASSLHSGVPSRFSGSGSETDFTLTISSLHPEDFATYYCQQSNSFPLTFGGGTKVEIK
notes: as for B2
Consider B4, for which the Kd in assay [1] amounted to 0.18 nM; in [2], 0.36 nM; in [4], 0.18 nM; in [5], 0.36 nM. In assay [12], the binding result is reported as “binds”. Besides, the results for the “% Max Specific binding” value in assay [8] and in assay [7] were 86.6% and 55.8%, respectively.

B5: Ky2 (8C10) (antibody, V domains shown)
VH: EVQLVESGGGLVQPGRSLRLSCAASGFTFDDYAMHWVRQGPGKGLEWVSSISWNSGRIDYADSVKGRFTISRDNAKNSLYLQMNRLRAEDTALYYCAKDGFYDILTGSFFDYWGQGILVTVSS
VL: DIQMTQSPSSLSASVGDRVTITCRASQSISSYLNWYHQEPGKAPNLLIYGASSLQSGVPSRFSGSGSGTDFTLTISSLQPEDFATYYCQQSYSAPPEWTFGQGTKVEIK
notes: as for B1
For the molecule B5, in assay [10], the binding result is “binds”. Also, the Kd in assay [1] stood at 0.1 nM; in assay [2], 7.39 nM; in assay [4], 0.1 nM; in assay [5], 7.39 nM. Further, the “% Max Specific binding” value in [7] is 20.1%.

Usually EC50 (read off the curve) stands for the concentration at which the effect is half-maximal. Lower therefore signals greater potency. The term IC50 denotes the midpoint of a concentration-inhibition curve. A higher IC50 goes with weaker potency in that assay.

Source of the values: patent publication US20190352413A1 (KYMAB, published 2019).
